Where two headings read alike, the source gives them in different places. Values belong to the binder of their own block, whether it stands above or below them.
Columns and labels:
Test in all cases: cell-based or functional assay
[1] = molecular target: T1, Human CXCR2 (human, UniProt P25025 1-360)
T1 sequence: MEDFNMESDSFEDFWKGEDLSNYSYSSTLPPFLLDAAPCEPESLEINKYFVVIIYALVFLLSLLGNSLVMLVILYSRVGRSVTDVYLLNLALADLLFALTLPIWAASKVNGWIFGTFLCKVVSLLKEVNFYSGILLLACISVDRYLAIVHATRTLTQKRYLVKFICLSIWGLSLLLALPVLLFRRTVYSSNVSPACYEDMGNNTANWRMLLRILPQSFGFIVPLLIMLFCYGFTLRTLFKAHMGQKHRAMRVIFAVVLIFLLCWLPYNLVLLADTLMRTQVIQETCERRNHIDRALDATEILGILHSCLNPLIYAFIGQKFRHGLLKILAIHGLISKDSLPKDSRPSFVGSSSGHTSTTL

[2] = molecular target: T2, Cynomolgus CXCR2 (cynomolgus, UniProt Q28519 3-353 (rhesus entry))
T2 chain: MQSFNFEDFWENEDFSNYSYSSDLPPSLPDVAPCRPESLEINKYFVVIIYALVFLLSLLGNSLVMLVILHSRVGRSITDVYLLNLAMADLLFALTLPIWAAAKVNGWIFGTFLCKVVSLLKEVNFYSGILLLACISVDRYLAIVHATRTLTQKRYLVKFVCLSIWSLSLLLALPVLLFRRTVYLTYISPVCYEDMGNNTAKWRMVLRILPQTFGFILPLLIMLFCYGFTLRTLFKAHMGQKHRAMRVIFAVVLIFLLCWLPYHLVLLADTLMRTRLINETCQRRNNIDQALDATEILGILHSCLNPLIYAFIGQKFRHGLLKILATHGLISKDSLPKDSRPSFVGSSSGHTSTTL

[3] = molecular target: T1, Human CXCR2; remark: listed apart in the source
[4] = molecular target: T1, Human CXCR2; remark: listed apart in the source
[5] = molecular target: T2, Cynomolgus CXCR2
[6] = molecular target: T1, Human CXCR2; remark: listed apart in the source
[7] = molecular target: T2, Cynomolgus CXCR2
[8] = molecular target: T1, Human CXCR2; remark: listed apart in the source

B1: CXCR20023 (bispecific antibody, not shown: small tags and cut ends)
chain: EVQLVESGGGLVQAGGSLRLSCAASGRTFSDYAMGWFRQAPGKEREFVAAITWNGGRVFYTASVKGRFTISRDNAKNTMYLQMNSLKPEDTAVYYCAADKDRRTDYLGHPVAYWGQGTQVTVSSGGGGSGGGGSGGGGSGGGGSGGGGSGGGGSGGGGSEVQLVESGGGLVQPGGSLRLSCVASGRIFSSNAMGWFRQAPGKEREFVAAITWRSGGSAYYADSAKGRFTISRDNAKNTVYLQMNSLKPEDTAVYYCAAGGSSWLSFPPDYWGQGTQVTVSS
FLIPR IC50, GRO-α induced intracellular calcium release [1]: 14.8 nM
FLIPR IC50, GRO-α induced intracellular calcium release [2]: 12 nM
[35S]GTPγS % inhibition of max, GRO-α [3]: 100%
[35S]GTPγS accumulation IC50, GRO-α [3]: 26.6 nM

B2: CXCR20026 (bispecific antibody, not shown: small tags and cut ends)
chain: EVQLVESGGGLVQPGGSLRLSCVASGRIFSSNAMGWFRQAPGKEREFVAAITWRSGGSAYYADSAKGRFTISRDNAKNTVYLQMNSLKPEDTAVYYCAAGGSSWLSFPPDYWGQGTQVTVSSGGGGSGGGGSGGGGSGGGGSGGGGSGGGGSGGGGSEVQLVESGGGLVQAGESLRLSCAASGSTFDFKVMGWYRQPPGKQREGVAAIRLSGNMHYAESVKGRFTISKANAKNTVYLQMNSLRPEDTAVYYCKVNIRGQDYWGQGTQVTVSS
FLIPR IC50, GRO-α induced intracellular calcium release [1]: 12.3 nM
FLIPR IC50, GRO-α induced intracellular calcium release [2]: 9.1 nM
[35S]GTPγS % inhibition of max, GRO-α [3]: 100%
[35S]GTPγS accumulation IC50, GRO-α [3]: 0.809 nM
Human Chemotaxis IC50 (vs rhGROα) [4]: 0.14 nM
Human WBSC IC50 (vs rhGROα) [4]: 0.165 nM
Cynomologus WBSC IC50 (vs rhGROα) [5]: 0.26 nM

B5: 127D01 (VHH, not shown: small tags and cut ends)
VHH: EVQLVESGGGLVQAGESLRLSCAASGSTFDFKVMGWYRQPPGKQREGVAAIRLSGNMHYAESVKGRFTISKANAKNTVYLQMNSLRPEDTAVYYCKVNIRGQDYWGQGTQVTVSS
FLIPR IC50, GRO-α induced intracellular calcium release [6]: 21.9 nM
[35S]GTPγS % inhibition max, GRO-α [6]: 66%
[35S]GTPγS accumulation IC50, GRO-α [6]: 12.5 nM
FLIPR IC50, GRO-α induced intracellular calcium release [7]: 753 nM
Human Chemotaxis IC50 (GROα) [8]: 3.9 nM
HumanWBSC IC50 (rhGROα) [8]: 4.9 nM

B7: 137B07 (VHH, not shown: small tags and cut ends)
VHH: EVQLVESGGGLVQPGGSVRLSCVASGIIFRLSALGWTRQGPGKAREWVAGINSDGTTNYADPVKGRFTISRDNAKNTIYLHMDMLKPEDTAVYYCASGKYRGQGTQVTVSS
FLIPR IC50, GRO-α induced intracellular calcium release [6]: 6.71 nM

B9: CXCR20014 (bispecific antibody, not shown: small tags and cut ends)
chain: EVQLVESGGGLVQPGGSLRLSCVASGSIVRINTMGWYRQTPGKQRELVADITSGGNINYIDAVKGRFTISRDNTKNTVYLQMNSLKPEDTAVYYCNAEIVVLVGVWTQRARTGNYWGQGTQVTVSSGGGGSGGGGSGGGGSGGGGSGGGGSGGGGSGGGGSEVQLVESGGELVQPGGSLRLSCAASGSILTINAMGWYRQAPGKQRELVVRRTRGGSTTYQDSVKGRFTISADIAKKTMYLQMNSLKPEDTAVYYCMLDDRGGVYWGQGTQVTVSS
FLIPR IC50, GRO-α induced intracellular calcium release [1]: 6.84 nM
FLIPR IC50, GRO-α induced intracellular calcium release [2]: 13.7 nM
[35S]GTPγS % inhibition of max, ENA-78 [3]: 100%
[35S]GTPγS % inhibition of max, GRO-α [3]: 100%
[35S]GTPγS % inhibition of max, IL-8 [3]: 100%
[35S]GTPγS accumulation IC50, ENA-78 [3]: 1.66 nM
[35S]GTPγS accumulation IC50, GRO-α [3]: 1.38 nM
[35S]GTPγS accumulation IC50, IL-8 [3]: 1.13 nM
Human Chemotaxis IC50 (vs rhGROα) [4]: 0.16 nM
Human WBSC IC50 (vs rhGROα) [4]: 0.445 nM
Cynomologus WBSC IC50 (vs rhGROα) [5]: 0.16 nM

B11: CXCR20020 (bispecific antibody, not shown: small tags and cut ends)
chain: EVQLVESGGGLVQAGESLRLSCAASGSTFDFKVMGWYRQPPGKQREGVAAIRLSGNMHYAESVKGRFTISKANAKNTVYLQMNSLRPEDTAVYYCKVNIRGQDYWGQGTQVTVSSGGGGSGGGGSGGGGSGGGGSGGGGSGGGGSGGGGSEVQLVESGGGLVQAGGSLRLSCAASGRTFSDYAMGWFRQAPGKEREFVAAITWNGGRVFYTASVKGRFTISRDNAKNTMYLQMNSLKPEDTAVYYCAADKDRRTDYLGHPVAYWGQGTQVTVSS
FLIPR IC50, GRO-α induced intracellular calcium release [1]: 6.98 nM
FLIPR IC50, GRO-α induced intracellular calcium release [2]: 1.64 nM
[35S]GTPγS % inhibition of max, ENA-78 [3]: 100%
[35S]GTPγS % inhibition of max, GRO-α [3]: 100%
[35S]GTPγS % inhibition of max, IL-8 [3]: 100%
[35S]GTPγS accumulation IC50, ENA-78 [3]: 0.707 nM
[35S]GTPγS accumulation IC50, GRO-α [3]: 0.634 nM
[35S]GTPγS accumulation IC50, IL-8 [3]: 0.619 nM
Human Chemotaxis IC50 (vs rhGROα) [4]: 0.145 nM
Human WBSC IC50 (vs rhGROα) [4]: 0.17 nM
Cynomologus WBSC IC50 (vs rhGROα) [5]: 0.12 nM

Now from value to binder:

FLIPR IC50, GRO-α induced intracellular calcium release [1]: 10.2 nM
FLIPR IC50, GRO-α induced intracellular calcium release [2]: 8.72 nM
[35S]GTPγS % inhibition of max, ENA-78 [3]: 100%
[35S]GTPγS % inhibition of max, GRO-α [3]: 100%
[35S]GTPγS % inhibition of max, IL-8 [3]: 100%
[35S]GTPγS accumulation IC50, ENA-78 [3]: 1.17 nM
[35S]GTPγS accumulation IC50, GRO-α [3]: 0.844 nM
[35S]GTPγS accumulation IC50, IL-8 [3]: 0.717 nM
Human WBSC IC50 (vs rhGROα) [4]: 0.24 nM
Cynomologus WBSC IC50 (vs rhGROα) [5]: 0.43 nM
B3: CXCR20035 (other, not shown: small tags and cut ends)
chain: EVQLVESGGGLVQAGGSLTLSCAVSGSTFRINTMGWYRRAPGKQRELVAARDRGGYINYVDSVKGRFTVSRDNAKPTMYLQMNSLKPEDTAVYYCHAGTQDRTGRNFDRWGQGTQVTVSSGGGGSGGGGSGGGGSGGGGSGGGGSGGGGSGGGGSEVQLVESGGGLVQPGGSLRLSCVASGRIFSSNAMGWFRQAPGKEREFVAAITWRSGGSAYYADSAKGRFTISRDNAKNTVYLQMNSLKPEDTAVYYCAAGGSSWLSFPPDYWGQGTQVTVSS

FLIPR IC50, GRO-α induced intracellular calcium release [1]: 11.8 nM
FLIPR IC50, GRO-α induced intracellular calcium release [2]: 9.47 nM
[35S]GTPγS % inhibition of max, GRO-α [3]: 100%
[35S]GTPγS accumulation IC50, GRO-α [3]: 0.995 nM
Human Chemotaxis IC50 (vs rhGROα) [4]: 0.145 nM
Human WBSC IC50 (vs rhGROα) [4]: 0.29 nM
Cynomologus WBSC IC50 (vs rhGROα) [5]: 0.44 nM
B4: CXCR20034 (bispecific antibody, not shown: small tags and cut ends)
chain: EVQLVESGGGLVQAGGSLRLSCAASGRTFSDYAMGWFRQAPGKEREFVAAITWNGGRVFYTASVKGRFTISRDNAKNTMYLQMNSLKPEDTAVYYCAADKDRRTDYLGHPVAYWGQGTQVTVSSGGGGSGGGGSGGGGSGGGGSGGGGSGGGGSGGGGSEVQLVESGGELVQPGGSLRLSCAASGSILTINAMGWYRQAPGKQRELVVRRTRGGSTTYQDSVKGRFTISADIAKKTMYLQMNSLKPEDTAVYYCMLDDRGGVYWGQGTQVTVSS

FLIPR IC50, GRO-α induced intracellular calcium release [1]: 17.9 nM
FLIPR IC50, GRO-α induced intracellular calcium release [2]: 4.46 nM
[35S]GTPγS % inhibition of max, GRO-α [3]: 100%
[35S]GTPγS accumulation IC50, GRO-α [3]: 1.01 nM
Human Chemotaxis IC50 (vs rhGROα) [4]: 0.145 nM
Human WBSC IC50 (vs rhGROα) [4]: 0.345 nM
Cynomologus WBSC IC50 (vs rhGROα) [5]: 0.42 nM
B6: CXCR20033 (bispecific antibody, not shown: small tags and cut ends)
chain: EVQLVESGGGLVQPGGSLRLSCVASGRIFSSNAMGWFRQAPGKEREFVAAITWRSGGSAYYADSAKGRFTISRDNAKNTVYLQMNSLKPEDTAVYYCAAGGSSWLSFPPDYWGQGTQVTVSSGGGGSGGGGSGGGGSGGGGSGGGGSGGGGSGGGGSEVQLVESGGELVQPGGSLRLSCAASGSILTINAMGWYRQAPGKQRELVVRRTRGGSTTYQDSVKGRFTISADIAKKTMYLQMNSLKPEDTAVYYCMLDDRGGVYWGQGTQVTVSS

FLIPR IC50, GRO-α induced intracellular calcium release [1]: 21.9 nM
FLIPR IC50, GRO-α induced intracellular calcium release [2]: 17 nM
[35S]GTPγS % inhibition of max, GRO-α [3]: 100%
[35S]GTPγS accumulation IC50, GRO-α [3]: 1.38 nM
Human WBSC IC50 (vs rhGROα) [4]: 0.43 nM
Cynomologus WBSC IC50 (vs rhGROα) [5]: 1.72 nM
B8: CXCR20028 (other, not shown: small tags and cut ends)
chain: EVQLVESGGGLVQPGGSLRLSCVASGSIVRINTMGWYRQTPGKQRELVADITSGGNINYIDAVKGRFTISRDNTKNTVYLQMNSLKPEDTAVYYCNAEIVVLVGVWTQRARTGNYWGQGTQVTVSSGGGGSGGGGSGGGGSGGGGSGGGGSGGGGSGGGGSEVQLVESGGGLVQAGGSLTLSCAVSGSTFRINTMGWYRRAPGKQRELVAARDRGGYINYVDSVKGRFTVSRDNAKPTMYLQMNSLKPEDTAVYYCHAGTQDRTGRNFDRWGQGTQVTVSS

FLIPR IC50, GRO-α induced intracellular calcium release [1]: 11.8 nM
FLIPR IC50, GRO-α induced intracellular calcium release [2]: 6.36 nM
[35S]GTPγS % inhibition of max, ENA-78 [3]: 100%
[35S]GTPγS % inhibition of max, GRO-α [3]: 100%
[35S]GTPγS % inhibition of max, IL-8 [3]: 100%
[35S]GTPγS accumulation IC50, ENA-78 [3]: 1.3 nM
[35S]GTPγS accumulation IC50, GRO-α [3]: 1.02 nM
[35S]GTPγS accumulation IC50, IL-8 [3]: 1.09 nM
Human WBSC IC50 (vs rhGROα) [4]: 0.215 nM
Cynomologus WBSC IC50 (vs rhGROα) [5]: 0.56 nM
B10: CXCR20030 (other, not shown: small tags and cut ends)
chain: EVQLVESGGGLVQAGGSLRLSCAASGRTFSDYAMGWFRQAPGKEREFVAAITWNGGRVFYTASVKGRFTISRDNAKNTMYLQMNSLKPEDTAVYYCAADKDRRTDYLGHPVAYWGQGTQVTVSSGGGGSGGGGSGGGGSGGGGSGGGGSGGGGSGGGGSEVQLVESGGGLVQAGGSLTLSCAVSGSTFRINTMGWYRRAPGKQRELVAARDRGGYINYVDSVKGRFTVSRDNAKPTMYLQMNSLKPEDTAVYYCHAGTQDRTGRNFDRWGQGTQVTVSS

Source: patent publication US20170101476A1 (Novartis, published 2017)
